Laboratory results as given in article PMC2641028.
pEC50: −log10 of the molar value.

Legend:
[1] = biological target: CP-MVP-Z recombinant vaults
[2] = biological target: CP-MVP-Z recombinant vaults; assay: ELISA

Row | other [1] [%] | pEC50 [2] | Substance
1 | 52 |  | mouse IgG (Sigma) (antibody)
2 | 92 | 9.60 | rabbit IgG (Sigma) (antibody)
